Test results taken from the supplement of paper PMC9112550, “Optimization of the antimicrobial peptide Bac7 by deep mutational scanning” (BMC Biology, 2022).

These sequences were tested on Escherichia coli TOP10 (assay: shrunken log2 fold change of peptide-encoding DNA abundance (4.5 h post-induction vs induction); higher = less antimicrobial activity (less host growth inhibition)). Settings: time post-induction: 4.5 h; library: site-saturation at positions 5, 18, 19, 20.
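Also: peptides expressed intracellularly from a pBAD plasmid library in pooled LB shake-flask culture, induced with 0.3% L-arabinose, DNA abundance read by NGS, three biological replicates, DESeq2 with apeglm shrinkage.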

Sequence | shrunken log2 fold change
RRIRRRPPRLPRPRPRPLFIPRP | -0.27
RRIRRRPPRLPRPRPRPLFRPRP | 0.109
RRIRRRPPRLPRPRPRPLGVPRP | 0.238
RRIRRRPPRLPRPRPRPLHIPRP | 0.212
RRIRRRPPRLPRPRPRPLKFPRP | -0.149
RRIRRRPPRLPRPRPRPLKIPRP | -0.0377
RRIRRRPPRLPRPRPRPLMAPRP | 0.312
RRIRRRPPRLPRPRPRPLMGPRP | 0.018
RRIRRRPPRLPRPRPRPLMMPRP | 0.8
RRIRRRPPRLPRPRPRPLMPPRP | 0.297
RRIRRRPPRLPRPRPRPLQAPRP | 0.98
RRIRRRPPRLPRPRPRPLQDPRP | 0.0495
RRIRRRPPRLPRPRPRPLRGPRP | 0.732
RRIRRRPPRLPRPRPRPLSDPRP | 0.144
RRIRRRPPRLPRPRPRPLSKPRP | 1.95
RRIRRRPPRLPRPRPRPMDAPRP | 0.161
RRIRRRPPRLPRPRPRPMDFPRP | 0.195
RRIRRRPPRLPRPRPRPMDNPRP | 0.158
RRIRRRPPRLPRPRPRPMGMPRP | 0.747
RRIRRRPPRLPRPRPRPMHDPRP | 0.117
RRIRRRPPRLPRPRPRPMIRPRP | 0.272
RRIRRRPPRLPRPRPRPMKVPRP | -0.0467
RRIRRRPPRLPRPRPRPMKYPRP | 0.00758
RRIRRRPPRLPRPRPRPMLHPRP | 0.385
RRIRRRPPRLPRPRPRPMNLPRP | 0.0545

Sequence | shrunken log2 fold change
RRIRRRPPRLPRPRPRPMRCPRP | 0.384
RRIRRRPPRLPRPRPRPMRMPRP | 0.119
RRIRRRPPRLPRPRPRPMRTPRP | 0.911
RRIRRRPPRLPRPRPRPMSRPRP | -0.0357
RRIRRRPPRLPRPRPRPMTGPRP | 0.0638
RRIRRRPPRLPRPRPRPMYEPRP | -0.034
RRIRRRPPRLPRPRPRPMYFPRP | -0.21
RRIRRRPPRLPRPRPRPNAPPRP | 0.675
RRIRRRPPRLPRPRPRPNCPPRP | 0.039
RRIRRRPPRLPRPRPRPNDCPRP | 0.264
RRIRRRPPRLPRPRPRPNFNPRP | -0.0741
RRIRRRPPRLPRPRPRPNFQPRP | 0.253
RRIRRRPPRLPRPRPRPNFRPRP | 0.0627
RRIRRRPPRLPRPRPRPNGGPRP | 0.171
RRIRRRPPRLPRPRPRPNGHPRP | 0.193
RRIRRRPPRLPRPRPRPNGMPRP | -0.0764
RRIRRRPPRLPRPRPRPNGWPRP | 0.282
RRIRRRPPRLPRPRPRPNHHPRP | -0.25
RRIRRRPPRLPRPRPRPNKPPRP | 0.101
RRIRRRPPRLPRPRPRPNKYPRP | 0.861
RRIRRRPPRLPRPRPRPNLPPRP | 0.0123
RRIRRRPPRLPRPRPRPNNPPRP | 0.0225
RRIRRRPPRLPRPRPRPNNYPRP | -0.378
RRIRRRPPRLPRPRPRPNQQPRP | -0.0676
RRIRRRPPRLPRPRPRPNRHPRP | -0.00811

Sequence | shrunken log2 fold change
RRIRRRPPRLPRPRPRPNRTPRP | -0.0707
RRIRRRPPRLPRPRPRPNSCPRP | -0.0116
RRIRRRPPRLPRPRPRPNSRPRP | -0.0456
RRIRRRPPRLPRPRPRPNTGPRP | -0.121
RRIRRRPPRLPRPRPRPNVYPRP | 0.0361
RRIRRRPPRLPRPRPRPNWEPRP | -0.0176
RRIRRRPPRLPRPRPRPNWRPRP | 0.415
RRIRRRPPRLPRPRPRPNYHPRP | -0.223
RRIRRRPPRLPRPRPRPNYWPRP | -0.19
RRIRRRPPRLPRPRPRPPACPRP | 0.619
RRIRRRPPRLPRPRPRPPATPRP | 0.958
RRIRRRPPRLPRPRPRPPEPPRP | 0.977
RRIRRRPPRLPRPRPRPPERPRP | 0.643
RRIRRRPPRLPRPRPRPPFLPRP | 0.315
RRIRRRPPRLPRPRPRPPGAPRP | 0.972
RRIRRRPPRLPRPRPRPPGLPRP | 0.658
RRIRRRPPRLPRPRPRPPIKPRP | 0.14
RRIRRRPPRLPRPRPRPPKFPRP | 0.298
RRIRRRPPRLPRPRPRPPKGPRP | 0.706
RRIRRRPPRLPRPRPRPPKLPRP | 0.0716
RRIRRRPPRLPRPRPRPPLFPRP | 0.464
RRIRRRPPRLPRPRPRPPMDPRP | 0.385
RRIRRRPPRLPRPRPRPPNKPRP | 0.333
RRIRRRPPRLPRPRPRPPNQPRP | 0.337
RRIRRRPPRLPRPRPRPPPCPRP | 0.864

Sequence | shrunken log2 fold change
RRIRRRPPRLPRPRPRPPPVPRP | 0.931
RRIRRRPPRLPRPRPRPPQGPRP | 0.856
RRIRRRPPRLPRPRPRPPREPRP | 1.11
RRIRRRPPRLPRPRPRPPRRPRP | 1.34
RRIRRRPPRLPRPRPRPPSFPRP | 0.251
RRIRRRPPRLPRPRPRPPTVPRP | 0.24
RRIRRRPPRLPRPRPRPPVIPRP | -0.139
RRIRRRPPRLPRPRPRPPWKPRP | 0.0487
RRIRRRPPRLPRPRPRPPWMPRP | 0.269
RRIRRRPPRLPRPRPRPQAIPRP | -0.0149
RRIRRRPPRLPRPRPRPQDSPRP | -0.0402
RRIRRRPPRLPRPRPRPQDVPRP | -0.108
RRIRRRPPRLPRPRPRPQDYPRP | -0.268
RRIRRRPPRLPRPRPRPQEDPRP | 0.108
RRIRRRPPRLPRPRPRPQFIPRP | -0.387
RRIRRRPPRLPRPRPRPQIAPRP | 0.31
RRIRRRPPRLPRPRPRPQKMPRP | -0.02
RRIRRRPPRLPRPRPRPQLAPRP | -0.0216
RRIRRRPPRLPRPRPRPQLDPRP | -0.0387
RRIRRRPPRLPRPRPRPQLEPRP | 0.059
RRIRRRPPRLPRPRPRPQLGPRP | 0.0467
RRIRRRPPRLPRPRPRPQLWPRP | 0.146
RRIRRRPPRLPRPRPRPQNFPRP | -0.149
RRIRRRPPRLPRPRPRPQQEPRP | -0.0236
RRIRRRPPRLPRPRPRPQQIPRP | -0.0299

Sequence | shrunken log2 fold change
RRIRRRPPRLPRPRPRPQQSPRP | 0.273
RRIRRRPPRLPRPRPRPQTCPRP | 0.247
RRIRRRPPRLPRPRPRPQYCPRP | -0.3
RRIRRRPPRLPRPRPRPQYDPRP | -0.224
RRIRRRPPRLPRPRPRPQYSPRP | -0.108
RRIRRRPPRLPRPRPRPRCMPRP | 0.1
RRIRRRPPRLPRPRPRPRDFPRP | 0.298
RRIRRRPPRLPRPRPRPRDMPRP | 0.186
RRIRRRPPRLPRPRPRPREMPRP | 0.513
RRIRRRPPRLPRPRPRPRGSPRP | 0.729
RRIRRRPPRLPRPRPRPRGTPRP | 0.216
RRIRRRPPRLPRPRPRPRHPPRP | 0.524
RRIRRRPPRLPRPRPRPRIDPRP | -0.0185
RRIRRRPPRLPRPRPRPRILPRP | -0.143
RRIRRRPPRLPRPRPRPRKWPRP | 0.319
RRIRRRPPRLPRPRPRPRNSPRP | -0.0834
RRIRRRPPRLPRPRPRPRPHPRP | 1.6
RRIRRRPPRLPRPRPRPRQNPRP | 0.419
RRIRRRPPRLPRPRPRPRTHPRP | 0.108
RRIRRRPPRLPRPRPRPRVEPRP | 0.662
RRIRRRPPRLPRPRPRPRVKPRP | 0.699
RRIRRRPPRLPRPRPRPRYHPRP | 0.14
RRIRRRPPRLPRPRPRPSAGPRP | 0.392
RRIRRRPPRLPRPRPRPSAPPRP | 0.418
RRIRRRPPRLPRPRPRPSARPRP | 0.349

Sequence | shrunken log2 fold change
RRIRRRPPRLPRPRPRPSCNPRP | -0.112
RRIRRRPPRLPRPRPRPSDFPRP | -0.116
RRIRRRPPRLPRPRPRPSDGPRP | 0.0219
RRIRRRPPRLPRPRPRPSDPPRP | -0.00173
RRIRRRPPRLPRPRPRPSECPRP | -0.039
RRIRRRPPRLPRPRPRPSEQPRP | 0.262
RRIRRRPPRLPRPRPRPSGQPRP | 0.306
RRIRRRPPRLPRPRPRPSIGPRP | -0.0466
RRIRRRPPRLPRPRPRPSKFPRP | -0.0219
RRIRRRPPRLPRPRPRPSLLPRP | 0.17
RRIRRRPPRLPRPRPRPSMPPRP | -0.0915
RRIRRRPPRLPRPRPRPSNMPRP | -0.311
RRIRRRPPRLPRPRPRPSPKPRP | 0.127
RRIRRRPPRLPRPRPRPSQGPRP | 0.0642
RRIRRRPPRLPRPRPRPSQQPRP | -0.0599
RRIRRRPPRLPRPRPRPSQTPRP | 0.294
RRIRRRPPRLPRPRPRPSRHPRP | 0.319
RRIRRRPPRLPRPRPRPSSHPRP | -0.0976
RRIRRRPPRLPRPRPRPSSKPRP | -0.145
RRIRRRPPRLPRPRPRPSTDPRP | -0.14
RRIRRRPPRLPRPRPRPSVIPRP | -0.00654
RRIRRRPPRLPRPRPRPSWPPRP | 0.0963
RRIRRRPPRLPRPRPRPSYKPRP | -0.563
RRIRRRPPRLPRPRPRPTCRPRP | 0.41
RRIRRRPPRLPRPRPRPTCYPRP | -0.242
